Experimental data from the Human Domainome abundance scans (Beltran et al. 2025).

B1: DnaJ homolog subfamily C member 2, residues 451 to 503; numbered along this chain, Q99543 (parent)
chain: SKNWSEDDLQLLIKAVNLFPAGTNSRWEVIANYMNIHSSSGVKRTAKDVIGKA

Variants of: B1
Assay: abundance fitness (aPCA) (normalised: wild type 0, dead -1); higher = more abundant; growth selection in yeast, the domain comes from the species named
Settings: Homo sapiens

Abundance fitness: each site, then its substitutions
V49: A -0.219 | I -0.069 | L -0.258 | C -0.031 | Q -0.744 | F -0.721 | S -0.886 | P -1.18 | E -0.897 | N -0.938 | R -0.888 | H -0.883 | W -0.758 | D -0.877 | K -1.02
A46: K -0.087 | C -0.094 | I -0.167 | G -0.246 | P -0.083 | H -0.309 | N -0.567 | Q -0.089 | R -0.222 | L -0.355 | T -0.114 | Y -0.305 | W -0.348 | F -0.366 | E -0.067 | S -0.099 | M -0.22
V42: F -0.145 | A -0.685 | I 0.093
G51: M -0.106 | A -0.019 | Q -0.043 | W -0.064 | H -0.206 | F -0.136 | Y -0.099 | C -0.142 | K 0.12 | S -0.014 | R 0 | I -0.176 | L -0.159 | T -0.065 | E 0.016 | D 0.063 | P -0.194
T45: I -0.33
A53: S -0.001 | R -0.498 | L -0.634 | H -0.233 | G -0.112 | V -0.035 | P -0.775 | Q -0.081 | C -0.188 | Y -0.629 | T -0.254 | D -0.08
D48: M -0.396 | R -0.708 | W -0.845 | Q -0.105 | A -0.262 | F -1.06 | L -0.838 | V -0.759 | C -0.393 | H -0.539 | E 0.042 | P -1.01 | K -0.973 | S -0.212 | N -0.623 | Y -1.04 | T -0.563 | G -0.554
K43: D -0.015 | E -0.096 | A -0.133 | T -0.006 | N -0.025 | W -0.259 | M -0.146 | P -0.209 | C -0.06 | F -0.179 | H -0.173 | I -0.147 | S -0.153 | L -0.067 | G -0.302 | R -0.045
K52: S -0.252 | M -0.247 | L -0.385 | Q -0.012 | W -0.018 | A -0.01 | T -0.197 | I -0.094 | N -0.358 | C -0.033 | P -0.077 | D -0.666 | E -0.006 | G -0.006 | V -0.181 | H -0.126 | F -0.329 | R -0.119
I50: H -0.146 | V 0.03 | E 0.095 | P -0.632 | G -0.113 | N -0.229 | L -0.06 | W -0.085 | D -0.224 | T -0.267 | A 0.085 | C -0.228 | R 0.096 | Y -0.006
K47: V -0.095 | Y -0.212 | A 0.054 | P -0.133 | T 0.08 | R -0.056 | S 0.033 | C -0.206 | E 0 | L -0.097 | Q 0.057 | G -0.039 | M -0.111 | F -0.22 | N -0.065 | W -0.266 | I -0.017
